Measurements: the DeepSol protein solubility set

Experiment: soluble on expression in E. coli; label from the status in PepcDB or PDB records

| Sequence | soluble on expression in E. coli |
| --- | --- |
| MDAEPSTPKQTEQEPSALSSADQVTNEPMESIIRPSILDSNSKMGNKQEDEDRLKKDSGPSTSNQAEQDPSKSADQFVTLSRPTTLGFSPTFESLQNNQEDTKQSTRLLNEDQDRDTLLKKHVDSLYALSERCIIFAGVLNQFLPTEKRRSKTDFLTENMLAALLSELITQIEVSDLRAKANPAVGKQEGDRCKELVSEKSCIEESLRNFREFAKEDSKTDTSSKLDPPNLNTLLYQLEGIEKIMNSIQTTLEANNFNDSENGSNEVTPNKSQLEGDSLKEVPSEESQIVDSAHDGDSRKEGESEVSEMDNVALDKDLPEETETDKTLVDEIPLEDLDKEPLDENPLEGSPGPAQNMTERNIRKRPNSRHDNVSPSKLQKV | soluble |
| MNPKFPDSPFLNDLLARLGEVLRQSPAQDFERNLKAGVTSMLTKLDLVSREEFDVQAAVLARTREKLGQLEARLADLEKHERQADEG | not soluble |
| MINHECINQPYGRILKFSRVQAKEMLTADELKENFAKNGQTLAQWARENGFKPRDVYLVIGGQRKGNYGKGHEIAKKLGLK | not soluble |
| STTALCRMNMILHNSATADIAKGGSSTLSNPLFTTENGMLKTFDYVVANPPFS | not soluble |
| GHVSDRPAGRMPLTVHRNVGRWLSEILHASIRDTGVSSRIEFVRRTLHGWVREEYSETELPNAVYRNLYFPVLDAQPAHAGSGKIETISECDRLKNLVRNVTDTLVENYPQGLESEALLIALDGVKLELARIRKDIEMYGDPRKR | soluble |
| GPLGSPRNANDNNQFYQQKQRQALGEQLYKKVSAKTSNEEAAGKITGMILDLPPQEVFPLLESDELFEQHYKEASAAYESFKKEQEQQTEQA | soluble |
| MGCAEEKKTDVRWATFNIRYDNPQDSLNNWQYRKDRVCQFIKDHELDIVGMQEVLHNQFQDLRAGLPEYDGIGVGRDDGKTAGEYAPLFYRKDKYEVLDSNTFWLAENPDSVGMMGWDAVCVRIATWAKFKDKATGKIFMAVNTHFDHVGEEARRQSALLIIRKIKEIVGERPAVVTGDFNVTDASDAYETITTNEFVMKDAYKTAARVTGVDYTFHDFARIPAEDCEKIDFIFVTPQVLVKSCEIPAEVPEALLSDHNPQLADLELEHHHHHH | not soluble |
| MGSDKIHHHHHHMIIKTSFLIVIHAQYAKKVVGKKISIYFTIHSGIKIFVKMKTCARISCFLILAVCSFFDAAAQGNFLLWEITGNGLADTSYLFGTIHIRDKRVFNLGDSTYYAITHTKALYGELNLQDKSEMKQHAPELLMPSGTSLQAMLSAQDYKLVKKYCKKHIGVYALLINKIKPIYISAVVSEDLLKKEEKKPLDLYLQDYAARQGNEIGGIETFQEQLSVIDLLPLQEQADMLVEQIKNIDQEKILMEQMLQFYLNESLDSLEILVQEDTLSQEFNEAILDARNKVMLTRMETQMNREPTFFAVGAAHLAGEKGLVILLRKAGYTVRPVKRK | not soluble |
| MGSSHHHHHHSSGRENLYFQGHMSCTTDKLIQKYDALVRKTTEHKFAKELCAGTLKDRSLYIYLSQDLQFFETSLRLICKTTSLAPTTHALITLAKKIGFFSNDENSYFHDCLELLAPSLTKEERDNFDNKAIPGVDAYINFLDELRKDASITWPSLVTSLWVAEELYWRWARDTPRAPGLHWKYQKWIDLHDGEHFQTWCEFLKAEVDKFPVEEVESIFVKVSQFEFEFFESCYNA | soluble |
| MGSDKIHHHHHHMMRVFHLVLAPRLSGAEVLAKDLALDQCAEGMAVCVASLLPAHAEFAPLQDDLQRHGVQCVFPRRRHRALVKLCHLFGAVRRFRPDVIFAHATIPSFYARALPLRVPVVYVMHSATNDFERPLFRRIEHILSGRARVVIGVSEQGVTDYVQAIGPHPSMTVVPNGVDLARFSFTDGVERDGRTPQVVQIGRYAAVKNQLATVRAFSEVLMKGKDARLVLYGVVEDPDYQRAVVALAKELGIAERVVVAGPRTDVATVLSESNVFVMPSQSEAHSVAFLEALASGVPIVASKIPAFAFANGFPGVQLIDTDNVQCYAEAVIAALGQERAQRSLTGLTLRDTADRYRAIARQVSLAVPAR | not soluble |
| MSLRILLVDDVQLDRMQLAIRLKQLGHIVKAVGSGIEALNTYESFDPELVLLDISMPEMNGFEVSLHVRETFPDWIPIIFLSSHEEPEMIAKAIDAGGDDYLIKPVDKLVLNSKLIAMQRIAHMRRELKQATAQLEQVNQLLTQQANEDGLTKLFNRRYIDQKLDSMVAWHGRHHMPMAMILLDVDFFKPFNDNYGHIEGDRCLQAIANQLKATFCRSGEYVGRYGGEEFVVLLSSTDAQTAEREAERIQEAMYFLDYQHEFSSVANRVTVSQGVFVFQPTGKENQADLYATADRALYTSKSLGRNTYTMVNASEGHHHHHH | soluble |
| MAFAIASALTSTLTLSTSRVQNPTQRRPHVASTSSTGGRLMRERLVVVRAGKEVSSVCEPLPPDRPLWFPGSSPPEWLDGSLPGDFGFDPLGLGSDPDTLKWFAQAELIHSRWAMLAVTGIIIPECLERLGFIENFSWYDAGSREYFADSTTLFVAQMVLMGWAEGRRWADLIKPGSVDIEPKYPHKVNPKPDVGYPGGLWFDFMMWGRGSPEPVMVLRTKEIKNGRLAMLAFLGFCFQATYTSQDPIENLMAHLADPGHCNVFSAFTSH | soluble |
| MANHKPEIVITYCTQCQWLLRAAWLAQELLSTFADDLGRVALEPGTGGIFRITCNGVQIWERKADGGFPEAKVLKQRVRDQVDPQRDLGHNDRLEHHHHHH | soluble |
| MSLSGEPYNFEYTFSKSHDIGVSLTIGKRNYMEDEVLIAGNIKEGIDLVGIFDGHNGSDAAKLAAKLFKEEIKHLEEEFDWITLFEKVHSTIIKSTESGTTATLALIYSNKITLVHCGDSTAFALKKRKLKKLTHDQNTSSLEEVSSIKKNGGVVEFNGGILRVNGQISVTRSLGDKKFHPPLTCIPEVIELESDDITSLVLTSDGISSVLQLDEIEAVMNSEMNVEEKSSTLRNQSFIREGKDNMSVIVVSFNEGHHHHHH | soluble |
| MGSDKIHHHHHHMRLPPIDLSRENTFGEISYESGGQYGPIRGDYLAFIIVHLGTLKIEADETVLQLEAGHCALSLTRDSYLTTIAPETLTHISWCDGRPLNAAWLYKERHKYAPFINASTQVQTLMQLGVDLGIGDRDGRGGLREALTNTLLNAYIYEAEVVAEERPIPQTILQARRFLDENFAADVSIERVAQQVRVSPQYLVSAFKKHLGMTPARYLWRCRLDYGAHLLQRSGLSVSEIAYQVGYKNPYHFSRQIKLAFDCSPTELREKMLNG | not soluble |
| MSDETFMREAIALARANVEAGGRPFGAVLVRDGRVLARGVNQIHETHDPSAHAELQAIRQASQALGSPRLDGCVIYASGHPCPMCLAAMHLCGIQAAWFAYSNEDGEAFGLSTATLYAEMARPPQRQSLPLRALRPAGEEGLYRQWRQRQA | not soluble |
| MSSEERSRQPSTVSTFDLEPNPFEQSFASSKKALSLPGTISHPSLPKELSRNNSTSTITQHSQRSTHSLNSIPEENGNSTVTDNSNHNDVKKDSPSFLPGQQRPTIISPPILTPGGSKRLPPLLLSPSILYQANSTTNPSQNSHSVSVSNSNPSAIGVSSTSGSLYPNSSSPSGTSLIRQPRNSNVTTSNSGNGFPTNDSQMPGFLLNLSKSGLTPNESNIRTGLTPGILTQSYNYPVLPSINKNTITGSKNVNKSVTVNGSIENHPHVNIMHPTVNGTPLTPGLSSLLNLPSTGVLANPVFKSTPTTNTTDGTVNNSISNSNFSPNTSTKAAVKMDNPAEFNAIEHSAHNHKENENLTTQIENNDQFNNKTRKRKRRMSSTSSTSKASRKNSISRKNSAVTTAPAQKDDVENNKISNNVTLDENEEQERKRKEFLERNRVAASKFRKRKKEYIKKIENDLQFYESEYDDLTQVIGKLCGIIPSSSSNSQFNVNVSTPSSSSPPSTSLIALLESSISRSDYSSAMSVLSNMKQLICETNFYRRGGKNPRDDMDGQEDSFNKDTNVVKSENAGYPSVNSRPIILDKKYSLNSGANISKSNTTTNNVGNSAQNIINSCYSVTNPLVINANSDTHDTNKHDVLSTLPHNN | soluble |
| MSSQVEHPAGGYKKLFETVEELSSPLTAHVTGRIPLWLTGSLLRCGPGLFEVGSEPFYHLFDGQALLHKFDFKEGHVTYHRRFIRTDAYVRAMTEKRIVITEFGTCAFPDPCKNIFSRFFSYFRGVEVTDNALVNIYPVGEDYYACTETNFITKVNPETLETIKQVDLCNYVSVNGATAHPHIENDGTVYNIGNCFGKNFSIAYNIVKIPPLQADKEDPISKSEIVVQFPCSDRFKPSYVHSFGLTPNYIVFVETPVKINLFKFLSSWSLWGANYMDCFESNETMGVWLHIADKKRKKYINNKYRTSPFNLFHHINTYEDHEFLIVDLCCWKGFEFVYNYSYLANLRENWEEVKKNARKAPQPEVRRYVLPLNIDKADTGKNLVTLPNTTATAILCSDETIWLEPEVLFSGPRQAFEFPQINYQKYGGKPYTYAYGLGLNHFVPDRLCKLNVKTKETWVWQEPDSYPSEPIFVSHPDALEEDDGVVLSVVVSPGAGQKPAYLLILNAKDLSEVARAEVEINIPVTFHGLFKKS | soluble |
| SRGRGGTGGARRLSCGARRRAARGTSPGRRLSTAWSQPQPPPEEYAGADDVSQSPVAEEPSWVPSPRPPVPHESPEPPSGRSLVQRDIQAFLNQCGASPGEARHWLTQFQTCHHSADKPFAVIEVDEEVLKCQQGVSSLAFALAFLQRMDMKPLVVLGLPAPTAPSGCLSFWEAKAQLAKSCKVLVDALRHNAAAAVPFFGGGSVLRAAEPAPHASYGGIVSVETDLLQWCLESGSIPILCPIGETAARRSVLLDSLEVTASLAKALRPTKIIFLNNTGGLRDSSHKVLSNVNLPADLDLVCNAEWVSTKERQQMRLIVDVLSRLPHHSSAVITAASTLLTELFSNKGSGTLFKNAERMLRVRSLDKLDQGRLVDLVNASFGKKLRDDYLASLRPRLHSIYVSEGYNAAAILTMEPVLGGTPYLDKFVVSSSRQGQGSGQMLWECLRRDLQTLFWRSRVTNPINPWYFKHSDGSFSNKQWIFFWFGLADIRDSYELVNHAKGLPDSFHKPASDPGS | soluble |
| MKVTVIGCYGGFPAANEATSGYLFQSGDYSLLVDCGSAVLSKLFGYVPAEKLDAVVLSHYHHDHIADIGPLQFAKQVGSFLGKGEHTLPIYGHDADIEQFQKLTYKTHTKGIAYQPDQPLTAGPFTITFLKTIHPVTCYAMRITDGSHTVVYTADSSYQDSFIPFSKDADLLISECNFYADQDGTSAGHMNSLEAGRIAKEAGAGELLLTHLPHFGVHDNLRKEAKTVFNGEVNIAKSGFVWEG | soluble |
| MEHKIGRGLLLGGLLSRFAGFLQSSEESLTSSFASYSSSFFLLTNTRDKRRSERTHTYMQVAQIICAHGATISTTRATLQRAPQSLLATSPDATSDSDDKIVRILVEALRRSDMSIIVSESFDQWARLAVEAKRLGLISFVEAACPSTISISCHAALSTGRINPEVTFRKVHNIHFMAQKTTGKAFASSNPEPVKGTTTSPFFLLSFFFPFFCSFLLRFSPINFPLLLLMNTAIGEYVLRIVVSGKVIMCRAVFGDSLNECRDGGGTDFEMDRYTSR | not soluble |
| MKTVGVVLSGCGVLDGAEIHESVLTMLALDRAGAEVLFFAPDKPQLHVINHITGEIVAEERNVLVESARIARGLITPLSAADPEVLDALIVPGGFGAAKNLCDFAIKGGECSVEPDLYKLIQLMHKSGKPIGLMCISPVMLPKLLGKPIRLTIGNDPDTIDAIEIMGGEHVICPADDVVIDLENKVVTTPAYMLAGSISEAAKGIDKLVTKVLDLTE | not soluble |
